Test results from patent US20240301067A1 (WUXI BIOLOGICS IRELAND, published 2024).
Residue numbers refer to the chain shown, from its start. Names and notes keep the numbering of the source. Blank lines part the entries; values can stand above or below the binder they belong to.

How the values were obtained:
Mouse PD-1 on 293F cells [1] = target: T1, Mouse PD-1 on 293F cells (mouse, UniProt Q02242 25-288); assay: FACS on 293F.mPro1.B4 cells
T1 construct: whole, on cells; also called 293F.mPro1.B4; WBP305.293F.mPro1.B4
T1 sequence (looked up): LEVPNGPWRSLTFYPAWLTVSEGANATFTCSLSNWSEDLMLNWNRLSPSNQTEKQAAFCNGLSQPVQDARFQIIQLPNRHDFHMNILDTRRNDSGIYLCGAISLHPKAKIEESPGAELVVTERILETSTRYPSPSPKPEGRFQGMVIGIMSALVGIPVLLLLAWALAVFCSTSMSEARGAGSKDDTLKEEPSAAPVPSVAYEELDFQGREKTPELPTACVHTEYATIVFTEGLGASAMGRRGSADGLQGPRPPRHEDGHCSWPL
Protocol: The cells 293F.mPro1.B4 (2×10⁵ cells/well) were incubated with various concentrations of anti-PD-1 antibodies (3-fold serially diluted from 133.3 nM to 0.008 nM) at 4° C. for 1 hour. After washing with 1×PBS/1% BSA, the secondary antibody PE-labeled goat anti-human IgG was applied and incubated with cells at 4° C. for 1 hour. Human IgG4 isotype antibody was used as negative control. The cells were then washed and re-suspended in 1×PBS/1% BSA. MFI of the cells was measured by a flow cytometer and analyzed by FlowJo (version 7.6.1).

[2] = target: T2, Human CTLA-4 extracellular domain, His tag (human, UniProt P16410 36-161); assay: ELISA, coated antigen 1 ug/mL, antibody 100 nM, HRP goat anti-human IgG
T2 construct: extracellular domain; also called hCTLA-4.ECD.His; not shown: 6xhis tag at C-terminus
T2 sequence (looked up): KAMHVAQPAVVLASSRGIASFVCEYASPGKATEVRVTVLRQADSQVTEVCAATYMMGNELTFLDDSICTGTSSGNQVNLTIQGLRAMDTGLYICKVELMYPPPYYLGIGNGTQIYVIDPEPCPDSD
Protocol: (§1) Plates were pre-coated with 1 μg/mL, 100 μL per well of hPD-1.ECD.mFc, hCD28.ECD.mFc, hCTLA-4.ECD.His, hICOS.ECD.mFc or hBTLA.ECD.His at 4° C. overnight. After 1-hour blocking using 200 μL of 1×PBS/2% BSA, testing antibodies were added to the plates at a concentration of 100 nM. The plates were incubated at ambient temperature for 1 hour. The binding of the antibodies to the immobilized proteins was detected by HRP-labeled goat anti-human IgG antibody. The color was developed by dispensing 100 μL of TMB substrate, and then stopped by 100 μL of 2N HCl. The absorbance was read at 450 nm and 540 nm using a microplate spectrophotometer.

[3] = target: T3, Human CD28 extracellular domain, mFc tag (human, UniProt P10747 19-152); assay: as above
T3 construct: extracellular domain; also called hCD28.ECD.mFc; not shown: mouse Fc tag at C-terminus
Protocol: as §1

[4] = target: T4, Human ICOS extracellular domain, mFc tag (human, UniProt Q9Y6W8 21-140); assay: as above
T4 construct: extracellular domain; also called hICOS.ECD.mFc; not shown: mouse Fc tag at C-terminus
T4 sequence (looked up): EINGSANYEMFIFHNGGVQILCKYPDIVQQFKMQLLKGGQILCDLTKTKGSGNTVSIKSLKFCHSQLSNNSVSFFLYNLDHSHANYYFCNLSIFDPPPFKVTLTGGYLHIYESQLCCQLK
Protocol: as §1

Mouse PD-1 on 293F cells [5] = target: T1, Mouse PD-1 on 293F cells; assay: FACS competition on 293F.mPro1.B4 cells; competitor mProL1.ECD.mFc 5 µg/mL
Protocol: The mouse PD-1 transfected 293F.mPro1.B4 cells were transferred into 96-well U-bottom plates at a density of 2×10⁵ cells/well. Various concentrations of anti-PD-1 antibodies (3-fold serially diluted from 1334 nM to 0.07 nM) and constant concentration of mouse Fc tagged mouse PD-L1 ECD protein (mProL1.ECD.mFc) (5 μg/mL) were pre-mixed and incubated with cells at 4° C. for 1 hour. After washing with 1×PBS/1% BSA, the secondary antibody PE-labeled goat anti-mouse IgG was applied and incubated with cells at 4° C. for 1 hour. The cells were then washed and resuspended in 1×PBS/1% BSA. MFI of the cells was measured by a flow cytometer and analyzed by FlowJo (version 7.6.1).

[6] = target: T5, Human PD-1 on CHO-S cells (human, UniProt Q15116 25-288); assay: FACS on CHO-S.hPro1.C6 cells
T5 construct: whole, on cells; also called CHO-S.hPro1.C6; WBP305.CHO-S.hPro1.C6
Protocol: The cells CHO-S.hPro1.C6 (2×10⁵ cells/well) were incubated with various concentrations of anti-PD-1 antibodies (4-fold serially diluted from 133.3 nM to 0.008 nM) at 4° C. for 1 hour. After washing with 1×PBS/1% BSA, the secondary antibody PE-labeled goat anti-human IgG was applied and incubated with cells at 4° C. for 1 hour. Anti-human PD-1 antibodies BMK1 and BMK3 were used as positive control. Human IgG4 isotype antibody was used as negative control. The cells were then washed and resuspended in 1×PBS/1% BSA. MFI of the cells was measured by a flow cytometer (BD) and analyzed by FlowJo (version 7.6.1).

[7] = target: T5, Human PD-1 on CHO-S cells; assay: FACS competition on CHO-S.hPro1.C6 cells; competitor hProL1.ECD.mFc 5 µg/mL
Protocol: The human PD-1 transfected CHO-S.hPro1.C6 cells were transferred into 96-well U-bottom plates at a density of 2×10⁵ cells/well. Various concentrations of antibodies (4-fold serially diluted from 133.3 nM to 0.008 nM) and constant concentration of mouse Fc tagged PD-L1 ECD protein (hProL1.ECD.mFc) (5 μg/mL) were pre-mixed and incubated with cells at 4° C. for 1 hour. After washing with 1×PBS/1% BSA, the secondary antibody PE-labeled goat anti-mouse IgG was applied and incubated with cells at 4° C. for 1 hour. The cells were then washed and resuspended in 1×PBS/1% BSA. MFI of the cells was measured by a flow cytometer and analyzed by FlowJo (version 7.6.1).

T5 sequence (Q15116 25-288): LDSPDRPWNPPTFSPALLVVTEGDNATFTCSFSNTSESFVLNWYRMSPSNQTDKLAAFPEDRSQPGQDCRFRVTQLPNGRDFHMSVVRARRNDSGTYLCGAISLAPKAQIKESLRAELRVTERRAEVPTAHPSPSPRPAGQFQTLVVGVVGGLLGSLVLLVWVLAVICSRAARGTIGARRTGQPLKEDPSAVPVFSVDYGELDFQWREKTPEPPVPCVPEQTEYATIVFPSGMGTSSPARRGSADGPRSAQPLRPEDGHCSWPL
T3 sequence (P10747 19-152): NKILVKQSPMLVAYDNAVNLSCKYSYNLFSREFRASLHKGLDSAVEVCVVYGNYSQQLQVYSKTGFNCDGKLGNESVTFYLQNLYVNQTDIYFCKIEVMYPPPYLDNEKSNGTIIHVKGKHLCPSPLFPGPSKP

EC50 (Mouse PD-1 on 293F cells [1]): 4.77 nM
binding result [2]: no binding (tested: 100 nM)
binding result [3]: no binding (tested: 100 nM)
binding result [4]: no binding (tested: 100 nM)
IC50 (Mouse PD-1 on 293F cells [5]): 22.1 nM
EC50 [6]: 1.87 nM
IC50 [7]: 1 nM
B1: W3056-AP17R1-2H2-FC(IgG4.SP) (Fc fusion)
chain: QVQLVESGGGLVQPGGSLRLSCAASDSIDSLVNMGWYRQAPGKQRELVALIANYITHYADFVKGRFTISRDAAKNTVNLQMSSLKPEDTAVYYCYARNIIVDYWGQGTQVTVSS
notes: VHH fused to Fc of human IgG4 S228P; also called W3056 lead parental antibody (VHH-Fc(hIgG4) fusion); not shown: Fc of human IgG4 (hIgG4.S228P)

EC50 (Mouse PD-1 on 293F cells [1]): 4.26 nM
binding result [2]: no binding (tested: 100 nM)
binding result [3]: no binding (tested: 100 nM)
binding result [4]: no binding (tested: 100 nM)
IC50 (Mouse PD-1 on 293F cells [5]): 10.2 nM
EC50 [6]: 0.612 nM
IC50 [7]: 0.655 nM
B2: W3056-AP17R1-2H2-Z1-R1-14A1-FC(IgG4.SP) (Fc fusion)
chain: B1 chain with L11V, N53T, A72N, A73S, V77L, N78Y, S82N, K85R, P86A, Q109L
notes: also called W3056 lead antibody (VHH-Fc(hIgG4) fusion); not shown: Fc of human IgG4 (hIgG4.S228P)
